Target: p53 WT (UniProt P04637 P04637:1-393)
Experiment: EMSA; GST-p53 purified from bacteria
Settings: tags: GST; chain copies: 4; label: biotin
Method: For supershift assay, anti-p53 antibodies were added into the cell nuclear extract mixed with the biotin-labeled probes and the mixture were incubated with for 1 hour at room temperature before loading into 6% of non-denatured polyacrylamide gel.

Chain of p53 WT (P04637 whole entry, one chain of several): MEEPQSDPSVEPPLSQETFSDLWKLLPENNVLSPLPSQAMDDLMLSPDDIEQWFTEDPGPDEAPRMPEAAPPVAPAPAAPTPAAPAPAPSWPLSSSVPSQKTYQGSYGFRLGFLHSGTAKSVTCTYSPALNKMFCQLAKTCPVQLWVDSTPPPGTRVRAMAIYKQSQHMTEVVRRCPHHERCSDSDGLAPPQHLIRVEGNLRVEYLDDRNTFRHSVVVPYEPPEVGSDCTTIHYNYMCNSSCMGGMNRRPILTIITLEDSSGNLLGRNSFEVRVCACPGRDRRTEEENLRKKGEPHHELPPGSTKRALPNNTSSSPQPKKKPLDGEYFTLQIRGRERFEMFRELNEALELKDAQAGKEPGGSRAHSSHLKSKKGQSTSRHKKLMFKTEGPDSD

B1: CTNNB1 probe 1 (MP53BS) (dsDNA)
DNA 1: GCCCCCTCGCGCCCCGCCCCTTGTC
DNA 2: GACAAGGGGCGGGGCGCGAGGGGGC
Q: Does B1 bind?
A: no binding

Source: US20240190903, “COMPOUNDS FOR PROGRAMMABLE PROTEIN DEGRADATION AND METHODS OF USE FOR THE TREATMENT OF DISEASE” (Mayo Foundation for Medical Education and Research, published 2024)
